The text below walks through data of patent publication US11013783B2, “Anti-inflammatory peptides and methods for treating inflammatory diseases” (INSTITUT NATIONAL DE LA RECHERCHE AGRONOMIQUE (INRA), priority 2012, dated 2021).

The subject of assay [1] is IL-8 production by HT29-MTX cells stimulated by TNFα. Put plainly: IL-8 production of HT29-MTX cells incubated with peptides and stimulated by TNFα. Particulars: FIG. 4. The format is cell-based. As for the experimental part: The inventors then incubated mucus secreting intestinal epithelial HT29-MTX cells with two peptide fragments obtained from the protein ZP05614546.1.
The inventors measured the IL-8 production (as a marker of inflammation) after stimulation of HT29-MTX cells incubated or not with said peptides and stimulated by TNFα.

Assay [2] deals with LPS-dependent NFκB activation. The assay can be described thus: LPS-dependent NFκB activation in HEK293T cells stably expressing TLR4, MD2 and CD14, NFκB luciferase reporter. It is filed as cell-based. Particulars: FIG. 2.
In assay [3] the test system is colonic inflammation. The assay can be described thus: Colonic inflammation model in mice treated daily orally with L. lactis expressing the protein. Particulars: M21/2 data not shown. It is filed as in vivo, C57B16 mice. As for the experimental part:
C57B16 mice (6-8 weeks old) are kept at room temperature, under 12 h light/dark cycles and having free access to food and water, except the day before the induction of colitis, where they are fasted for 12 h.
Colonic inflammation is induced by treatments with Dextran Sodium Sulfate […]. In details, DSS is dissolved in drinking water (3 or 5% wt/vol) and the animals are free to drink this solution for 7-days. Water consumption is measured in the DSS-treated groups and compared to groups of naïve mice drinking water: no difference is observed for the volume of liquid consumed, between water and DSS-drinking mice. Mice are treated daily orally, with 200 μL of 1 to 5.10^9 colony forming units (cfu) of strains to be tested or bacterial milieu alone—i.e. L. lactis expressing the protein ZP 05614546.1 (Accession number changed to WP_005932151), its ortholog of strain M21/2 (SEQ ID NO: 4) or no protein-. […] Body weight and survival rate are measured daily after the induction of colitis (or right after the first gavage, in case of preventive treatment). DAI (disease activity index is also measured):
On day 7 after adding DSS to their drinking water, mice are sacrificed and colons are harvested for measure of several parameters of inflammation: bowel thickness and length, myeloperoxydase (MPO) activity, cytokine expression (IL-17A, IFN-γ, IL10, IL12p70 or other cytokines) can be measured. […]

Assay [4] relates to NFκB signaling pathway. Put plainly: NFκB luciferase reporter system in HEK 293T cells transfected with pCMV plasmids (Carma-1-dependent activation). The format is cell-based, human. Particulars: for NFκB signaling pathway inhibition (%): HEK 293T NFκB reporter, proteins cloned in 3× Flag (C-term) pCMV vector, table I. From the text:
In order to further analyze the activity of the polypeptides of the invention, the inventors decided to transfect the protein-coding cDNA directly into mammalian epithelial cell model.
The sequence of the protein ZP05614546.1 (SEQ ID NO: 2) has been cloned in 3× Flag (C-term) pCMV vector.
In order to test the NFκB signaling pathway inhibiting activity from the orthologs of ZP05614546.1, the other protein sequences from FIG. 3 were also cloned in 3× Flag (C-term) pCMV vector and tested in the NFκB reporter system in human epithelial cells HEK 293T.
So as to better quantify the anti-inflammatory properties of ZP05614546.1 and orthologs, increasing quantity of pCMV plasmid (i.e. 50, 25 and 12.5 ng) containing SEQ ID NO: 2 and SEQ ID NO: 4 were used to transfected HEK293 cell line. Then, the evolution of NFκB signaling pathway expression was determined as previously. […] Accordingly, the SEQ ID NO: 4 from the strain M21/2 is 100% (2 fold) more efficient in inhibiting NFκB signaling pathway than the protein ZP05614546.1.
In order to further analyze the activity of the polypeptides of the invention, the inventors decided to clone into the previously described pCMV plasmid, the sequences corresponding to amino acids 23-135 of SEQ ID NO: 2 (Mut 1), 1-39/72-135 of SEQ ID NO: 2 (Mut 2), 1-99 of SEQ ID NO: 2 (Mut 3), 35-77 of SEQ ID NO: 2 (p35-′7′7) and . . . - . . . of SEQ ID NO: 2 from MAM from F. prausnitzii strain A2-165. The four constructs, Mut 1, Mut 3, p35-77 and p49-70 carry the peptide 1-5.
For orientation: In a reporter assay the amount or activity of a reporter protein is the signal.

With “K G N T F L Q S T I N R T I G V L (KGNTFLQSTINRTIGVL; listed as Faecalibacterium prausnitzii) [SEQ ID NO: 47, peptide fragment of ZP05614546.1, region between positions 53 and 68]”, the “anti-inflammatory effect (IL-8 production as a marker of inflammation)” value in assay [1] is “anti-inflammatory effect in a dose dependent manner”. Regarding “VKGNPIEKNNFGDYAMNALGIAAAVYNLGVAPTKNTVKETEVKFTV (VKGNPIEKNNFGDYAMNALGIAAAVYNLGVAPTKNTVKETEVKFTV; listed as Faecalibacterium prausnitzii) [SEQ ID NO: 48, peptide fragment of ZP05614546.1, region between positions 90 and 135]”, the “anti-inflammatory effect (IL-8 production as a marker of inflammation)” value in assay [1] is on record as “anti-inflammatory effect in a dose dependent manner”.

B1: ZP05614546.1: conserved hypothetical protein of F. prausnitzii strain A2-165 (protein, listed as Faecalibacterium prausnitzii)
chain: MMMPANYSVIAENEMTYVNGGANFIDAIGAVTAPIWTLDNVKTFNTNIVTLVGNTFLQSTINRTIGVLFSGNTTWKEVGNIGKNLFGTNVKGNPIEKNNFGDYAMNALGIAAAVYNLGVAPTKNTVKETEVKFTV
Take B1: the “inhibition of LPS-dependent NFκB activation” value in assay [2] is reported as “inhibits the LPS-dependent NFκB activation”. The “reduction of colonic inflammation” value in assay [3] is listed as “significantly reduce colonic inflammation”. For the same molecule, in assay [4], the “NFκB signaling pathway inhibition (%)” value worked out at 58 ± 6%. In addition, the “inhibition of Carma-1-dependent NFκB activation” value in assay [4] (HEK293T cells, NFκB luciferase reporter, FIG. 1) was “inhibits Carma-1-dependent NFκB activation”. In assay [4] (NFκB reporter system in human epithelial cells HEK 293T, protein cDNA transfected in pCMV vector), the “inhibition of NFκB signaling pathway” value was “inhibits the NFκB signaling pathway in a dose-dependent manner”.

B2: M21/2: ortholog of ZP05614546.1 from strain M21/2 (protein, listed as Faecalibacterium prausnitzii)
chain: MMMPANFSAVSENEMTYVMGGSVADYLAPAMGAAQWQNFHKNLITIVGNKYVQGFLDNTVGAMFSGTWTPGDGLTGFGGQFSTIWKKNYTDNVTDESTGAQKFGYGALGVVNSILNVAGNLAAIYNLGFGTAKNIVGEGVYKA
For B2, the “reduction of colonic inflammation” value in assay [3] is recorded as “upper than the one observed with ZP 05614546.1 protein”. The “efficiency in inhibiting NFκB signaling pathway relative to protein ZP05614546.1” value in assay [4] (50, 25 and 12.5 ng pCMV plasmid, Carma-1-dependant NF-kB activation, HEK293T, FIG. 9) was 2 fold. Also, the “NFκB signaling pathway inhibition (%)” value in assay [4] came to 90 ± 3%.

B3: SL3/3: ortholog of ZP05614546.1 from strain SL3/3 (protein, listed as Faecalibacterium prausnitzii)
chain: MMMPANFSAVSENEMTYVMGGSVADYLAPAMGAAQWQNFHKNLITIVGNKYVQGFLDNTVGAVFSGTWTPGDGLTGFGGQFSKIWKDNYTDNVTGESTGAQKFGYGALGVVNSILNVAGNLAAIYNLGFGTAKNIVGEGVYKA
For B3, in assay [4], the “NFκB signaling pathway inhibition (%)” value is 86 ± 5%.

B4: CNCM4573: ortholog of ZP05614546.1 from strain CNCM-4573 (protein, listed as Faecalibacterium prausnitzii)
chain: MMMPANFSAVSENEMTYVMGGSIADYLAPAMGAAQWQNFHKNLVTIVGNKYVQGFLDNTVGAVFSGTWTPGVGLTGFGGQFSTIWKKNYTDNVTDESTGAQKFGYGALGVVNSILNVAGNLAAIYNLGFGTAKNIVGEGVYKA
On to B4, for which the “NFκB signaling pathway inhibition (%)” value in assay [4] is reported as 89 ± 2%.

B5: L2-62: ortholog of ZP05614546.1 from strain L2-62 (protein, listed as Faecalibacterium prausnitzii)
chain: MMMPANFSAVNAEVVYGGAVADYLPSAWTAESVKRFNSNIITLVSNSFTSHLLKATLGTMFSGSWGSDGVTLFGDNGTFSGLYNVNRLPGGEAQTFGNKIMTTLGLASVVYTLGMKDAAVLTAKKVTNSNGQVWGDLPNNGGSGWVG
As to B5, the “NFκB signaling pathway inhibition (%)” value in assay [4] worked out at 34 ± 5%.

B6: KLE1255: ortholog of ZP05614546.1 from strain KLE1255 (protein, listed as Faecalibacterium prausnitzii)
chain: MMMPANFSAVAENEMTYVVGGSLVDVLAPAMTTANWQNVSANVIKIVGNSFLAKYTNDVLAQLFDGNYVPGDVIGYSVKNLDKAYNKGYGTFGGNWGFAVGALNAGMQILGGLSAIYTLGSSSIGLETKSGTLPTL
Consider B6, for which, in assay [4], the “NFκB signaling pathway inhibition (%)” value turned out to be 72 ± 1%.
